We go through 17 molecules from paper PMC2099194 (The Journal of Cell Biology, 2007).

Assay [1] concerns the target His-ABD-IgFLNa16-24 (human) (UniProt P21333). In words: rotary-shadowing electron microscopy.
Assay [2] deals with F-actin (rabbit skeletal muscle actin) (rabbit) (UniProt P68135). As to the kind of experiment: co-sedimentation.
For assay [3], the target named is His-ABD-IgFLNa1-8+24 (human) (UniProt P21333). In words: rotary-shadowing electron microscopy.
Assay [4] deals with F-actin (rabbit skeletal muscle actin) (rabbit) (UniProt P68135). As to the kind of experiment: co-sedimentation. The source holds these as a separate data set.
Assay [5] addresses recombinant human filamin A (FLNa), full length (human) (UniProt P21333). As to the kind of experiment: rotary-shadowing electron microscopy.
The target in assay [6] is His-ABD-IgFLNa8-15+24 (human) (UniProt P21333). As to the kind of experiment: rotary-shadowing electron microscopy.
Assay [7] addresses full-length FLNa lacking hinge 1 (human) (UniProt P21333). In words: rotary-shadowing electron microscopy.
The target of a further assay is His-IgFLNa16-24 (human). As to the kind of experiment: rotary-shadowing electron microscopy.
In assay [8] the target is His-IgFLNa8-15+24 (human). As to the kind of experiment: rotary-shadowing electron microscopy.
The target in assay [9] is full-length FLNa lacking hinge 2 (human) (UniProt P21333). As to the kind of experiment: rotary-shadowing electron microscopy.
The target of the next assay is His-IgFLNa1-8+24 (human). In words: rotary-shadowing electron microscopy.
The target in assay [10] is FLAG-tagged full-length FLNa (human) (UniProt P21333). In words: rotary-shadowing electron microscopy.
Assay [11] has as its target FLAG-tagged full-length FLNa (human, UniProt P21333 1-2647). In words: pull-down.

Where two headings read alike, the source gives them in different places.

By stoichiometry N is commonly meant a count of units in the complex or per binding partner. In assay [1], “His-ABD-IgFLNa16-24 (from UniProt P21333 1-278) (domain or fragment)” returned a stoichiometry N of 2.
What is called Kd is the equilibrium constant for the complex coming apart. Take FLAG-ABD-IgFLNa1-8 (domain or fragment): in assay [2], the Kd came out at 7.1 µM and the stoichiometry N (ratio to actin, mol/mol) came out at 1.8.
As for “His-ABD-IgFLNa1-8+24 (from UniProt P21333 1-278) (domain or fragment)”, the stoichiometry N in assay [3] was 2.
With ABD-IgFLNa1-15 (domain or fragment), in [2], the Kd came to 0.67 µM and the stoichiometry N (ratio to actin, mol/mol) came to 5.4.
On to “recombinant human filamin A (FLNa), full length, P21333 1-2647”, for which the percent bound of total input in [4] was 83.6%. Besides, in [2], the KD of the high avidity site (apparent, two independent site model) came to 0.017 µM; the KD of the low affinity site (apparent, two independent site model) is 0.22 µM; the percent bound of total input was 56.3%. Also, the stoichiometry N in [5] was determined as 2.
In [6], “His-ABD-IgFLNa8-15+24 (from UniProt P21333 1-278) (domain or fragment)” showed a stoichiometry N of 2.
As to ABD-IgFLNa1-23 (domain or fragment), in assay [2], the Kd was determined as 0.31 µM and the stoichiometry N (ratio to actin, mol/mol) amounted to 12.
For ABD-IgFLNa1-4 (domain or fragment), in that order: 7.5 µM and 1.7.
“full-length FLNa lacking hinge 1 (from UniProt P21333 1-2647) (natural protein)”: the stoichiometry N in [7] was found to be 2.
Consider His-IgFLNa16-24 (domain or fragment), for which the stoichiometry N in the assay with His-IgFLNa16-24 (human) was 2.
Take His-IgFLNa8-15+24 (domain or fragment): in assay [8], the stoichiometry N turned out to be 2.
As to “FLNa ABD (F-actin binding domain alone) (domain or fragment)”, the percent bound of total input in assay [4] amounted to 11.7%. For the same molecule, in assay [2], the Kd was 17 µM; the percent bound of total input was 8.7%; the stoichiometry N (ratio to actin, mol/mol) turned out to be 1.
Turning to “full-length FLNa lacking hinge 2 (from UniProt P21333 1-2647) (natural protein)”, the stoichiometry N in assay [9] is 2.
With His-IgFLNa1-8+24 (domain or fragment), the stoichiometry N with His-IgFLNa1-8+24 (human) was 2.
In [10], “FLAG-tagged full-length FLNa, P21333 1-2647” had a stoichiometry N of 2.
ABD-IgFLNa1-2 (domain or fragment): in [2], the Kd was 11.8 µM and the stoichiometry N (ratio to actin, mol/mol) came out at 1.3.

B1: full-length human recombinant FilGAP (natural protein, UniProt Q8N264 1-748, looked up)
chain: MEENNDSTENPQQGQGRQNAIKCGWLRKQGGFVKTWHTRWFVLKGDQLYYFKDEDETKPLGTIFLPGNKVSEHPCNEENPGKFLFEVVPGGDRDRMTANHESYLLMASTQNDMEDWVKSIRRVIWGPFGGGIFGQKLEDTVRYEKRYGNRLAPMLVEQCVDFIRQRGLKEEGLFRLPGQANLVKELQDAFDCGEKPSFDSNTDVHTVASLLKLYLRELPEPVIPYAKYEDFLSCAKLLSKEEEAGVKELAKQVKSLPVVNYNLLKYICRFLDEVQSYSGVNKMSVQNLATVFGPNILRPKVEDPLTIMEGTVVVQQLMSVMISKHDCLFPKDAELQSKPQDGVSNNNEIQKKATMGQLQNKENNNTKDSPSRQCSWDKSESPQRSSMNNGSPTALSGSKTNSPKNSVHKLDVSRSPPLMVKKNPAFNKGSGIVTNGSFSSSNAEGLEKTQTTPNGSLQARRSSSLKVSGTKMGTHSVQNGTVRMGILNSDTLGNPTNVRNMSWLPNGYVTLRDNKQKEQAGELGQHNRLSTYDNVHQQFSMMNLDDKQSIDSATWSTSSCEISLPENSNSCRSSTTTCPEQDFFGGNFEDPVLDGPPQDDLSHPRDYESKSDHRSVGGRSSRATSSSDNSETFVGNSSSNHSALHSLVSSLKQEMTKQKIEYESRIKSLEQRNLTLETEMMSLHDELDQERKKFTMIEIKMRNAERAKEDAEKRNDMLQKEMEQFFSTFGELTVEPRRTERGNTIWIQ
As for B1, in assay [11], the binding result is listed as “binds”.
